In IntAct's records for PubMed 24338975:

Key:
[1] = target: psd10_human PSMD10 (UniProt O75832)
[2] = target: psd10_human PSMD10 (UniProt O75832); remark: listed apart in the source

Chain of psd10_human PSMD10 (O75832 whole entry): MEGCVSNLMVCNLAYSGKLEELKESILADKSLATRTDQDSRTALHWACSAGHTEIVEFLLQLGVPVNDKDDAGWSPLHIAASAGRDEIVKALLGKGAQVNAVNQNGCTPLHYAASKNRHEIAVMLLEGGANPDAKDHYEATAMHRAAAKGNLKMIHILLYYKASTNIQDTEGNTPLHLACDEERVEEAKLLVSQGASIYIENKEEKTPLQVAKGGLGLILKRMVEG
Chain of Cytoplasmic protein NCK2 (Homo sapiens), O43639 E167A;E168A;D170A (O43639 whole entry E167A/E168A/D170A): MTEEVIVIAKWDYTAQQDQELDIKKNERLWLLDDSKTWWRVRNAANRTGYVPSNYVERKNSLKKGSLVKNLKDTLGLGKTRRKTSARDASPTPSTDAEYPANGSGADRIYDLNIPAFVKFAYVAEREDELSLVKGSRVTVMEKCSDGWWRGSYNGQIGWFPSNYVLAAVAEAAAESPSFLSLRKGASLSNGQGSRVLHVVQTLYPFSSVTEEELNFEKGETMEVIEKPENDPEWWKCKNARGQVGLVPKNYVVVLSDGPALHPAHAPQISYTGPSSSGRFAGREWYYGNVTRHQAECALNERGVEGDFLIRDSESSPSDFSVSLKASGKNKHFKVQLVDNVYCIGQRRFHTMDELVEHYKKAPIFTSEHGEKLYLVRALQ

| Substance | effect of a mutation on the interaction [1] | effect of a mutation on the interaction [2] |
| --- | --- | --- |
| Chloride intracellular channel protein 1 (Homo sapiens) (from UniProt O00299) E150A;E151A;D153A | disrupting interaction strength | – |
| Chloride intracellular channel protein 1 (Homo sapiens) (from UniProt O00299) V152E | with no effect | – |
| Cytoplasmic protein NCK2 (Homo sapiens), O43639 E167A;E168A;D170A | – | disrupting interaction strength |
